Assay results taken from article PMC12090219, “Reversible Substrate-Specific Photocontrol of the Chemotherapeutic Asparaginase(-Glutaminase) from Escherichia coli” (ACS Catalysis, 2025).
Residue numbers refer to the chain shown, from its start.

B1: wild-type Escherichia coli type II asparaginase, P00805 23-348 (enzyme)
chain: LPNITILATGGTIAGGGDSATKSNYTVGKVGVENLVNAVPQLKDIANVKGEQVVNIGSQDMNDNVWLTLAKKINTDCDKTDGFVITHGTDTMEETAYFLDLTVKCDKPVVMVGAMRPSTSMSADGPFNLYNAVVTAADKASANRGVLVVMNDTVLDGRDVTKTNTTDVATFKSVNYGPLGYIHNGKIDYQRTPARKHTSDTPFDVSKLNELPKVGIVYNYANASDLPAKALVDAGYDGIVSAGVGNGNLYKSVFDTLATAAKTGTAVVRSSRVPTGATTQDAEVDDAKYGFVASGTLNPQKARVLLQLALTQTKDPQQIQQIFNQY
B2: EcAII-T21AzoF (enzyme, E. coli)
chain: B1 chain with T21F
modifications: phenylalanine-4'-azobenzene (AzoF) at position 21
notes: type II L-asparaginase (EcAII) from E. coli, gene ansB, UniProt P00805, with the unnatural amino acid AzoF in place of T21; The new residue is the unnatural amino acid phenylalanine-4'-azobenzene; the as-isolated state is ~100% E; also called EcAII with phenylalanine-4'-azobenzene at position T21
B3: EcAII-S19AzoF (enzyme, E. coli)
chain: B1 chain with S19F
modifications: phenylalanine-4'-azobenzene (AzoF) at position 19
notes: type II L-asparaginase (EcAII) from E. coli, gene ansB, UniProt P00805, with the unnatural amino acid AzoF in place of S19; The new residue is the unnatural amino acid phenylalanine-4'-azobenzene; the as-isolated state is ~100% E; also called EcAII with phenylalanine-4'-azobenzene at position S19

Key:
[1] = target: T1, wild-type Escherichia coli type II asparaginase (E. coli), P00805; test: SEC-MALS; analytical size-exclusion chromatography with static light scattering detection; 40 uM EcAII on S200 10/300 GL in 50 mM Tris/HCl pH 7.0, 100 mM NaCl; detection at 280 and 334 nm; conditions: remark: other sources report otherwise
T1 chain: B1 chain

[2] = target: the molecule itself; test: as above

Row | Binder | stoichiometry N [1] | stoichiometry N [2]
1 | B1 | 4 | 
2 | B2 |  | 4
3 | B3 |  | 4
